Results on two substances are retold here after patent US20090281023A9.

For assay [1], the target named is PEG7-Octyl-Salmon Calcitonin, Diconjugate (salmon) (UniProt P01263).
Assay [2] addresses salmon calcitonin (salmon) (UniProt P01263).
Assay [3] has as its target PEG7-Octyl-Salmon Calcitonin, Diconjugate (salmon) (UniProt P01263). The source holds these as a separate data set.
Assay [4] addresses salmon calcitonin (salmon) (UniProt P01263). The source holds these as a separate data set.

Consider Trypsin (enzyme), for which the % Remaining following 1 U/mL Trypsin Digest (180 min, non-formulated) in assay [1] was 61 % remaining; in assay [2] it was 31 % remaining.

Turning to Chymotrypsin (enzyme), the % Remaining Following 0.5 U/mL Chymotrypsin Digest (60 min, non-formulated) is 6 % remaining in assay [3] and 5 % remaining in assay [4].
